From paper PMC3592454

B1: PR (WT) (dsDNA)
DNA 1: GCGTGTTGACTATTTTACCTCTGGCGGTGATAATGGTTGCATGTACTAAGGAGGTTGTATGGAACAACGCA
DNA 2: TGCGTTGTTCCATACAACCTCCTTAGTACATGCAACCATTATCACCGCCAGAGGTAAAATAGTCAACACGC
modifications: 5'-C6-amino linker
B2: P1 galP1+P2-P3+ (dsDNA)
DNA 1: TTTTCGCATCTTTTCGTTGCTATGGTTATTTCATACCATAAGCCTAATGGAGCGAATTATGAG
DNA 2: CTCATAATTCGCTCCATTAGGCTTATGGTATGAAATAACCATAGCAACGAAAAGATGCGAAAA
modifications: 5'-C6-amino linker

Molecular target: RNA polymerase holoenzyme with sigma70 Q437A (Escherichia coli, UniProt P00579;P0A7Z4;P0A8V2;P0A8T7;P0A800 1-613;1-329;1-1342;1-1407;2-91, Q437A)
Test: fluorescence anisotropy

Binder | Kd [nM]
B1 | 14.9
B2 | 0.76 ± 0.1
